{"source": "the DeepSol protein solubility set"}
{"experiment": "soluble on expression in E. coli; label from the status in PepcDB or PDB records"}
{"sequence": "MGHHHHHHSHLKHKMMNYMKDFRMIEDSENPEIVISVGGDGTLLQAFHQYSHMLSKVAFVGVHTGHLGFYADWLPHEVEKLIIEINNSEFQVIEYPLLEIIMRYNDNGYETRYLALNEATMKTENGSTLVVDVNLRGKHFERFRGDGLCVSTPSGSTAYNKALGGALIHPSLEAMQITEIASINNRVFRTVGSPLVLPKHHTCLISPVNHDTIRMTIDHVSIKHKNVNSIQYRVANEKVRFARFRPFPFWKR", "soluble on expression in E. coli": "not soluble"}
{"sequence": "MDYLPLFADLKQRPVLIVGGGEVAARKIELLHRAGAQVWVVAQTLSSELEQQYQDGRIHWLAQDFLPEQLDNVFLVIAATNDTVLNAAVFAAADQRCILANVVDDQPLCSFIFPSIVDRSPLVVAISSSGQAPVLARILREKLEALLPTRLSDMAAIAGRWRGRVKQHMASMGERRRFWEHAFSGRFASLISRGQLTEAENELQLSLEGQHRALGEVALVGAGPGDAGLLTLRGLQVMQQADVVLYDHLVSPEVLDLVRRDAERICVGKRAGAHSVTQEATNQLLVTLAQQGKRVVRLKGGDPFIFGRGGEELQVVAQAGIPFQVVPGVTAAAGATAYAGIPLTHRDHAQSVTFITGHCRPDGDDLDWQTLARGRQTLAIYMGTVKAAAISQQLIAHGRSSTTPVAVIGRGTRVDQQVLIGTLAQLESLAQQAPTPALLVIGEVVNLHHQIAWFGQQPQTESAISPSVVNLA", "soluble on expression in E. coli": "not soluble"}
{"sequence": "MGSDKIHHHHHHMENDFPLKGKTVLVTRNKAQAASFQQKVEALGGKAVLTSLITFRRALPNDVAEQVREDLAAPGWLVFTSVNGADFFFSYLKENQLILPAHKKIAAVGEKTARRLKMHNVSVDVMPQEYIAEQLADALKQHAEPGETITVMKGNLSRDVIKQELVPLGFEVKEWVLYETIPDEEGIEALKDAAGQYSFDYVTFTSSSTVHTFMHVLGEELKKWKANGTACISIGPLTNDALLTYGITSHTPDTFTIDGMLELMCSMSREEERI", "soluble on expression in E. coli": "not soluble"}
{"sequence": "MGPNPMKMYPIEGNKSVQFIKPILEKLENVEVGEYSYYDSKNGETFDKQILYHYPILNDKLKIGKFCSIGPGVTIIMNGANHRMDGSTYPFNLFGNGWEKHMPKLDQLPIKGDTIIGNDVWIGKDVVIMPGVKIGDGAIVAANSVVVKDIAPYMLAGGNPANEIKQRFDQDTINQLLDIKWWNWPIDIINENIDKILDNSIIREVIWKK", "soluble on expression in E. coli": "soluble"}
{"sequence": "MSLDREKANKNLLKILEAINGNSLVLFKSFEDLDSFYKYLKREITKTNIKNKNIHVYEQGMDGKEAKELKERFEKIGGILLATGRFAEGVDIPGEALVGVVIDSLPFPVPTPLILREQKILEERFKIRGVRDAHWRAFLMTSFDRMARTLVQMIGRLIRTENDYGVVVIQDKRFADWVGRVMREKGEGHHHHHH", "soluble on expression in E. coli": "soluble"}
{"sequence": "SNSANAADSGTLNYEVYKYNTNDTSIANDYFNKPAKYIKKNGKLYVQITVNHSHWITGMSIEGHKENIISKNTAKDERTSEFEVSKLNGKIDGKIDVYIDEKVNGKPFKYDHHYNITYKFNGPTDVAGANAP", "soluble on expression in E. coli": "not soluble"}
{"sequence": "MKKLIIATVLASISLSASAAETIRFAAEATYPPFEFIDANNKMQGFDIDLANALCKEMQADCTFTNQAFDSLIPSLKFKRFDAVISGMDITPERQKQVAFTQPYYDNSALFIAQKDKVADLAALKGKRVGMQNGSTHQKYLMEKHPEITAVPYDSYQNAILDLKNGRLDAVFGDTAVVNEWLKQNDQLAAVGDKVTDADYFGTGLGIAVRQSNTELQGKLDAALTKVKADGTYQTIYKKWFQQ", "soluble on expression in E. coli": "not soluble"}
{"sequence": "MSKQLLALNIDGALLRSNGKIHQATKDAIEYVKKKGIYVTLVTNRHFRSAQKIAKSLKLDAKLITHSGAYIAEKIDAPFFEKRISDDHTFNIVQVLESYQCNIRLLHEKYSIGNKKKVNSNLLGKALIHPSDPIFYPVQFVESLSDLLMDEPVSAPVIEVYTEHDIQHDITETITKAFPAVDVIRVNDEKLNIVPKGVSKEAGLALVASELGLSMDDVVAIGHQYDDLPMIELAGLGVAMGNAVPEIKRKADWVTRSNDEQGVAYMMKEYFRMQQRKGFLDKFHMKRV", "soluble on expression in E. coli": "not soluble"}
{"sequence": "MGSDKIHHHHHHMLFWSTVDLGLTFMATSSTLAFDSSNRIDDVKIVIKGYEFGPAVPKLVVKLNQKISKVSTKDLKVETAGVKRQIKKVYLSDKNSQKSTKKEGDYLTIQMPVTYNVDDSSKNASPFVYNTDVFQNQWVKTYPVSIKGLTVSYKGKSTNNLTSKSDAINKRVSPDSEVFTNRGSFSGNYTNPLTKKNEKVDLQYAAYEPKKLQSGNKNPLIIWLHGQGEGGTDPDITLLGNKVTALIKEDIQNHFKSGNQKGTYVLTVQAPTYWMDEGDGSNGQGAGTSRYTEVLMDAIKKYVAKIT", "soluble on expression in E. coli": "not soluble"}
{"sequence": "SEDGGWNTIESDPAVFTQLLEDLGVKDVKVEEVLQLDAAFLRSLEPVHGLIFLFKWLPDQGSEQELSFSQDVDLFFANQVIQNACGTQALLSVVFNAKDLELGSELAEFKEFTKDFDPQTRGLALSNSETIRSAHNSLSGLQHFSFEFDEKEKSDSFHFISYVPFQGRIYELDGLKKGPICRGSYTAERHWTDVAISEIEKRIERYGEGEIRFNLLAVVRDPLKIWQQELLSYQTALESCSLEVERMSISMQMKEIQTRMEDEKKRRESIRRESNRRRHNMLPFIFHLIKWLHENSDLSFT", "soluble on expression in E. coli": "soluble"}
{"sequence": "MMVMTDKFNYEELGLKVGLEIHRQLDTKKLFSPVPSELSDKVEFTFQRRLRPTMSELGEIDPAALEEFKKGRVYVYEGNYELTDLVYMDEEPPRGPDREALEVALQIAYLLNAKPVDEVYYMRKIVIDGSNVSGFQRTAIIATDGKVETPWGAVGIPTICLEEDAARIIERKDKEVIYRLDRLGIPLIEISTTPDIHHPEQAKVVAKFIGDALRATKKVKRGLGTIRQDLNVSIKGGARIEIKGVQELDMIPIIIEREVERQLNLLKIRDELRKRGVKPKDIKEEFYDVTDIFENTKSKIIARVIKKGGKVLAIKLPKFRGLIGREIQPGRRLGTEFADRAKKYVPGIFHIDELPNYGISQEEVNKVIERLNLSEEDAFVLVAAEEEKAKNALREVIKRAREAIEGVPEETRRALPDGNTEYMRPLPGKARMYPETDIPPLRIPDDLKKKIKENLPELPQAKVERYVKEYKLDRSLAQTLVDDERDELFEELVSMGVKPSLAASILVVVLKGLRKEVPIENVTDEHIREAFQLYLEGKIAKEAFEEIFKELARNPSKSAREVAEEKGLTLLSEEEVTRIIEEVIQQNIEVVKAKGMGAMGLIMGRVMAKVRGKADGKLVSQIVRRKLQEISGG", "soluble on expression in E. coli": "soluble"}
{"sequence": "MNKHTTLPNLMQKIVSDEDLQSIIEAVGYHDTSRTFTVRTLVDFFLLAALHEWKSFRHGADVAKMYGLPTFHYSTVSKKAKEVPYEVMKRLFALVVSKCNRQTRRSLRFPKALRVVDSTTVTVGKNRLAWAPYHGERSGVKMHVAYSPEQQMPSDIVETVGLRHDGPVGEQLTDAQSVLVEDRAYFKIERIARFVEQKPPFVFG", "soluble on expression in E. coli": "not soluble"}
{"sequence": "MKRKIIVACGGAVATSTMAAEEIKELCQSHNIPVELIQCRVNEIETYMDGVHLICTTARVDRSFGDIPLVHGMPFVSGVGIEALQNKILTILQG", "soluble on expression in E. coli": "soluble"}
{"sequence": "MSNICKTVSLRTRKIKDGHMLSYYLDYYPGYRDESTMKVIRHESLGIYIYAKPKNQMEQKYNLNLMARAEAIRCRRFEAIVNERYDFFDKEKMKGDFLAYFKKLADKKNSKWQHVYMHFRTFTQGKCTFGEINVDLCNRFREYLLTAPQGLHKNRKLHINSAANYWSTFRASIHTAYRDRKIKENPNGFLERIETIPTDKEHLSQDEVIRLASTPCSAPALKRAFLFSCLTALRKSDIKKLTWEEIQPYGSDGVMYVTTRMQKTKDIVHNPISEEALELIGYSPDKRGKVFPDFK", "soluble on expression in E. coli": "not soluble"}
{"sequence": "MGHHHHHHSHMECETDEQKQGSDENMSECETSSVCSSSDTGLFTNDEGRQGDDEQSDWFYEGECVPGFTVPNLLPKWAPDHCSEVERMDSGLDKFSDSTFLLPSRPAQRGYHTRLNRLPGAAARCLRKGRRRLVGKETSINTLGTERISHIISDPRQKDFWLPSAGKRERNQFNPLSPLYSLDVLADASHRRCSPAHCSARQANVHWGPPCSRVIKRKRKPVATASLSSPSAVHMDAVEPTTPASQAPKSPSSEWLVRTSAAEKATDATTATFFKMPQEKSPGYS", "soluble on expression in E. coli": "not soluble"}
{"sequence": "MKALNLKTPGREDDDVDEVLDENTVQDVNENIMLKGLGGKENLQTIDHCATRLRLTVKDTALVDEALLKKAGAKGVVKSGGQSVQVIIGPNVEFAAEELRAAVK", "soluble on expression in E. coli": "not soluble"}
{"sequence": "MHHHHHHSSGVDLGTENLYFQSMADSEALPSLAGDPVAVEALLRAVFGVVVDEAIQKGTSVSQKVCEWKEPEELKQLLDLELRSQGESQKQILERCRAVIRYSVKTGHPRFFNQLFSGLDPHALAGRIITESLNTSQYTYEIAPVFVLMEEEVLRKLRALVGWSSGDGIFCPGGSISNMYAVNLARYQRYPDCKQRGLRTLPPLALFTSKECHYSIQKGAAFLGLGTDSVRVVKADERGKMVPEDLERQIGMAEAEGAVPFLVSATSGTTVLGAFDPLEAIADVCQRHGLWLHVDAAWGGSVLLSQTHRHLLDGIQRADSVAWNPHKLLAAGLQCSALLLQDTSNLLKRCHGSQASYLFQQDKFYDVALDTGDKVVQCGRRVDCLKLWLMWKAQGDQGLERRIDQAFVLARYLVEEMKKREGFELVMEPEFVNVCFWFVPPSLRGKQESPDYHERLSKVAPVLKERMVKEGSMMIGYQPHGTRGNFFRVVVANSALTCADMDFLLNELERLGQDL", "soluble on expression in E. coli": "soluble"}
{"sequence": "MSLETSTQCTSAVAHTSGRRNYNEDRICVATNIEGADLFAVFDGHNGHEAATLCRNKLKQVYGSCHGNINDTFQSLNDIVSKETTAGCTATIVAVKQNSIEVGNCGDSPAYVIRKDKSIEKITYDHKATDPKEEEMIVKNGGVVMNLFGTKRVNGQIMVTRSIGDRSLHPPMTSIPTTKIISKEDIISICVMSDGVTDALTDLEIHDIMTNGQPIEIRAQTIRNQAYKEGSKDNICVVVVDLEGHHHHHH", "soluble on expression in E. coli": "soluble"}
{"sequence": "SLELKITDFKVFVAQANFEWAFVRIYSKDLYGTGEAGPAPGLKGMESEFIQLLIGEDAFKVNRIAEKLRYATLYSGTTVYHLISAINIALYDLIGKYLNVPIYKLLGGDKTEIPVYVDAHGGKGLEAINALHLPVNLPWIKEAEVETNRLITTNNPVHGRLSMEKWNEDYSPEAYAKRALKMKNEGYKAMKFDLDVPTPYIDLRRVRNGDLSLKDIDYMVDIVKAVRESVGDEVEIMFDLHWRYNLNTAIRICKALEPYRLRWLEDPMPAIMAVSNYDELKLLTSQCSVPIETGENLYTVYQFKDLLNTGVRVWAPDIVKAGGITEGRRIAELAAMYDIEYSPHNIASPIGTMAHAHVGSIANTFGFVEFHGHDVPFWNEIVKPKRKIIEDGVIKLTDDPGLGIDLDDEVMRKYWPTYEL", "soluble on expression in E. coli": "soluble"}
{"sequence": "MGSDKIHHHHHHMIDSHAHLISADVERYPTSPLSGELEPGALDNPVTAERLLALMDEQGIERALAVQRAHIYGFNNAYVCDAAQRYPERLRALGMVDALDQNIREQVRHWVGERGAVGIRLTEPFKGADPSWFASPEAMAAWETVSELGGSVRLHFYRWNREAALKALKPVLQRFPQTTVVLDHFSNIVGESGAPDHGVDATLLEMVEHSNVYLLYSMINLGKLAAAQMAAAPMVERVVREFGADRVMWGSDVAQSKGSYAQMVALAKESVSLLSETDQRKVLHDTAHAVYWGTR", "soluble on expression in E. coli": "not soluble"}
{"sequence": "MGSDKIHHHHHHMTNLLEASIEQAGYTSRKKVLTDVFLEVRKGELVGLIGANGAGKSTAIKAILGLSEDFKGHIAWNDCSFAYIPEHPSFYEELTLWEHLDLISTLHGIEESEFAHRAQSLLQTFSLDHVKHELPVTFSKGMQQKLMLIQAFLSKPDMYVIDEPFIGLDPISTKRFVDMLKAEKERGAGILMCTHVLDTAEKICDRFYMIEKGSLFLQGTLKDVQDKTGLEGQSLLDCFYKAVQGDRL", "soluble on expression in E. coli": "not soluble"}
